Data reported in article PMC2855817 (Biochemistry, 2010).
Read-outs that look alike come from different tables or passages of the source.

Key:
[1] = biological target: L29P variant of Pseudomonas fluorescens (SIK WI) aryl esterase (PFE) (Pseudomonas fluorescens SIK WI); assay: crystal structure
[2] = test system: O=C1CCCCCO1; assay: purified protein; type: biochemical, Pseudomonas fluorescens; conditions: pH 7.2, BES, 23 °C
[3] = biological target: T1, PFE (Pseudomonas fluorescens esterase; aryl esterase) (Pseudomonas fluorescens, UniProt P22862, L30P); conditions: pH 5.5, 23 °C
T1 sequence (P22862 2-272 L30P): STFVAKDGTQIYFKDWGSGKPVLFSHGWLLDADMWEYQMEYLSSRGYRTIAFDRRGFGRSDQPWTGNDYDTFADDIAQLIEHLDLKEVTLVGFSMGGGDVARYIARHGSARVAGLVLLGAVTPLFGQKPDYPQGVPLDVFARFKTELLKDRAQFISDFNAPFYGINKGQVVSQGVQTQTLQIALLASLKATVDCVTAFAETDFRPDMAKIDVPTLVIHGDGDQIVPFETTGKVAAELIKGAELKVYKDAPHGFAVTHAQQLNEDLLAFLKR

[4] = biological target: T1, PFE (Pseudomonas fluorescens esterase; aryl esterase); conditions: pH 5.5, 23 °C; estimated upper limit

Compound: L29P variant of Pseudomonas fluorescens (SIK WI) aryl esterase (PFE) (enzyme)
- stoichiometry N [1]: 6

Compound: PFE (Pseudomonas fluorescens esterase; aryl esterase) (Pseudomonas fluorescens; L30P)
- Km [2]: 39000 ± 1000 µM
- kcat [2]: 11 ± 1 s⁻¹
- kcat/Km [2]: 280 M⁻¹ s⁻¹

Compound: CC(=O)OO [peracetic acid]
- Km [3]: 41 ± 5 µM
- Km [4]: < 3 µM
